In PMC4954776 (Nature chemical biology, 2013):
Where two headings read alike, the source gives them in different places.

Columns and labels:
AUC [1] = biological target: the molecule itself; experiment: AUC
AUC [2] = biological target: the molecule itself; experiment: AUC; remark: listed apart in the source

B1: BRAF^444-723 kinase domain with 16 solubilization mutations (domain or fragment)
chain: RDSSDDWEIPDGQITVGQRIGSGSFGTVYKGKWHGDVAVKMLNVTAPTPQQLQAFKNEVGVLRKTRHVNILLFMGYSTKPQLAIVTQWCEGSSLYHHLHASETKFEMKKLIDIARQTARGMDYLHAKSIIHRDLKSNNIFLHEDNTVKIGDFGLATVKSRWSGSHQFEQLSGSILWMAPEVIRMQDSNPYSFQSDVYAFGIVLYELMTGQLPYSNINNRDQIIEMVGRGSLSPDLSKVRSNCPKRMKRLMAECLKKKRDERPSFPRILAEIEELARELSG
Q: Which Kd (AUC [1]) does the source give for B1 here?
A: > 25 µM

Q: And the Kd (AUC [2])?
A: < 0.78 µM
